Measured values published in US7943358B2, “Polymerase enhancing factor (PEF) extracts, PEF protein complexes, isolated PEF protein, and methods for purifying and identifying” (Agilent Technologies, Inc., priority 1997, dated 2011).

What was measured:
Format in all cases: biochemical
[1] = target: T1, Pfu DNA polymerase (Pyrococcus furiosus, UniProt P61875); experiment: 0.9 kb α1-antitrypsin PCR with unrelated dU-containing or control oligonucleotide; conditions: 0.8 pmole of dU containing primer; 7 ng PEF
T1 sequence (P61875 1-775): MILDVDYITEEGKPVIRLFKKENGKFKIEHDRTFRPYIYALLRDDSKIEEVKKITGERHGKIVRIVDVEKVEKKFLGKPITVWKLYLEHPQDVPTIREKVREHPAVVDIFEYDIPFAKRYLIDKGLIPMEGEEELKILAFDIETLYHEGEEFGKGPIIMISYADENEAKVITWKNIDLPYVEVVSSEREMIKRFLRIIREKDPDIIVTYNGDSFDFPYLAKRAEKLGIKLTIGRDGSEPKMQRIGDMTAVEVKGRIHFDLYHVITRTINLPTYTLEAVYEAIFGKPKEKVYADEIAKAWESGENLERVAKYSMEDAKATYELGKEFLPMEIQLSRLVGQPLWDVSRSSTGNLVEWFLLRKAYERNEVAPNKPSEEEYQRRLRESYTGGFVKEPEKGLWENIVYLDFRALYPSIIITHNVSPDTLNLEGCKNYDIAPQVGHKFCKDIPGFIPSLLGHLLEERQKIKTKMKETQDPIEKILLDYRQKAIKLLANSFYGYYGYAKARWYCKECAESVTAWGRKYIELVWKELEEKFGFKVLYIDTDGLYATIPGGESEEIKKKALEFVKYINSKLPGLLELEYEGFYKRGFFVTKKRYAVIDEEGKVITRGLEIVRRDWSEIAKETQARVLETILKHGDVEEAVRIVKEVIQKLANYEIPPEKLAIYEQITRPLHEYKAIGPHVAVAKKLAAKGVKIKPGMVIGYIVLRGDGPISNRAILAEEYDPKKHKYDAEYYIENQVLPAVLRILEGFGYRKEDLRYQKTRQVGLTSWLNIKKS

[2] = target: Taq DNA polymerase (Thermus aquaticus, UniProt P19821); experiment: PCR with Taq DNA polymerase
Taq DNA polymerase, sequence (P19821 whole entry): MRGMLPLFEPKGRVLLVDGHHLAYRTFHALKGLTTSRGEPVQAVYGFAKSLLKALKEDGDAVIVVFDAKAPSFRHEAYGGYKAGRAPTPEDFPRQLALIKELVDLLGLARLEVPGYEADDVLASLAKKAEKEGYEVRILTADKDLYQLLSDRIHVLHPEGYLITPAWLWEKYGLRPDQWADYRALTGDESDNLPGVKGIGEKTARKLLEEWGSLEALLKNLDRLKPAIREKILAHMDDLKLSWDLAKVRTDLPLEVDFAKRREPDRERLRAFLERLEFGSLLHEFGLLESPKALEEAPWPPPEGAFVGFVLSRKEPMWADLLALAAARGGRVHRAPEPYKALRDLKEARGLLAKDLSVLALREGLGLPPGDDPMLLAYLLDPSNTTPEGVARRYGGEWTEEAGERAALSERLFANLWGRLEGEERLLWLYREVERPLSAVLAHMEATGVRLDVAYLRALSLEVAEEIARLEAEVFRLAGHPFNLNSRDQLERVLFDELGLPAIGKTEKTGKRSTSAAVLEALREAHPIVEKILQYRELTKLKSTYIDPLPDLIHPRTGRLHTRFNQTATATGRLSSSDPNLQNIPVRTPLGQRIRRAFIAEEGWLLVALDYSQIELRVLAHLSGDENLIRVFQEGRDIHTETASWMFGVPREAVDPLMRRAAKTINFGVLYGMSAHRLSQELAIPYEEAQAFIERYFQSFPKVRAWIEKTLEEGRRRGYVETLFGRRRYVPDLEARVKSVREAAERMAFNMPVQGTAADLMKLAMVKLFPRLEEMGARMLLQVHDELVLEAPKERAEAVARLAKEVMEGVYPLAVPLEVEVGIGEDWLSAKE
Method: FIGS. 33, 34, 35, and 36. Enhancing activity of P. furiosus PEF in PCRs conducted with Pwo (FIG. 33); JDF-3 (FIGS. 34 and 35), ES4 and Vent (FIG. 35). and Deep Vent (FIG. 36) DNA polymerases. In FIG. 33, 25 μl PCRs were conducted using the 6.2 kb test system (example 1) with 25 U/ml Pwo DNA polymerase and 1× cloned Pfu PCR buffer. 1 μl of S200-purified P. furiosus PEF (prep 1; 225 ng/μl) was added undiluted (lane 1) or diluted 1:10 (lane 2), 1:1000 (lane 3), 1:10,000 (lane 4). 1 μl of dilution buffer was added as a negative control (lane 5). In FIG. 34, a 10 kb lambda DNA-target was amplified from lambda DNA (lanes 1-4; 5-7; 11-13) or mouse genomic DNA, containing 40 copies (lanes 8-10) or 1 copy (lanes 14-16) of a lambda DNA transgene. 100 μl PCRs were conducted with 250 ng of lambda DNA (Sigma) or mouse genomic DNA and 250 ng of primers (F51-20 5′[…] (SEQ ID NO: 22); R10163-20 5′CCA-TCT-CAC-GCG-CCA-GTT-TC) (SEQ ID NO: 23). PCRs were conducted in Taq PCR buffer using 5 U Taq DNA polymerase (lanes 1-4) or 1 U JDF3 DNA polymerase (lanes 5-16). 1 μl of the following was added to PCRs: S200-purified PEF (prep. 3; 550 ng/μl PEF) diluted 1:500 (lanes 2, 12, 15), 1:100 (lanes 6, 9), 1:50 (lane 3), 1:10 (lanes 7, 10, 13, 16), or 1:5 (lane 4). 1 μl of dilution buffer was added as a negative control (lanes 1, 5, 8, 11, 14). […]

[3] = PPi detection with dATP in place of dUTP; conditions: 1 hour at 72° C.
Method: […] The presence of PPi in the reaction mixture was then quantified using Sigma's Enzymatic Determination of Pyrophosphate kit (Sigma Product No. P7275). The kit utilizes a coupled enzyme system whereby two moles of NADH are oxidized to NAD^+ for each mole of PPi present in the reaction mixture. The oxidation of NADH is monitored spectrophotometrically at 340 nm. […] The reactions that contained 1800 ng of PEF produced twice as much PPi as those that contained 900 ng of PEF.

B1: PEF: polymerase enhancing factor complex purified from Pyrococcus furiosus; predominant components P50 and P45 (protein)
chain 1: MLHHVKLIYATKSRKLVGKKIVXXXPGSIAALDVKACEGLIRHGAEVHAVMSEAATKIIHPYAWNLPTGNPVITEITGFIEHVELAGEHENKADLILVCPATANTISKIACGIDDTPVTTVVTTAFPHIPIMIAPAMHETMYRHPIVRENIERLKKLGVEFIGPRIEEGRAKVASIDEIVYRVIKKLHKKTLEGKRVLVTAGATREYIDPIRFITNASSGKMGVALAEEADFRGAVTLIRTKGSVKAFRIRKIKLKVETVEEMLSAIENELRSKKYDVVIMAAAVSDFRPKIKAEGKIKSGRSITIELVPXNPKIIDRIKEIQPNVFLVGFKAETSKEKLIEEGKRQIERAKADLVVGNTLEAFGSEENQVVLIGRDFTKELPKMKKRELAERIWDEIEKXLS
chain 2: MLLPDWKIRKEILIEPFSEESLQPAGYDLRVGREAFVKGKLIDVEKEGKVVIPPREYALILTLERIKLPDDVMGDMKIRSSLAREGVIGSFAWVDPGWDGNLTLMLYNASNEPVELRYGERFVQIAFIRLEGPARNPYRGNYQGSTRLAFSKRKKL
modifications: not fully specified; X: residue not identified in the source
notes: polymerase enhancing factor complex purified from Pyrococcus furiosus; predominant components P50 and P45
amplification in reactions containing dU oligo with PEF [1]: a small amount of amplification product is observed | yield of PCR products generated with Taq DNA polymerase [2]: may not enhance the yield | PPi detected with dATP in place of dUTP [3]: No PPi was detected
